Consider 4 molecules from patent US20240026407A1, “MODIFICATION OF SAPONINS” (GLAXOSMITHKLINE BIOLOGICALS SA, priority 2020, published 2024).

Common to all, as to format: biochemical, Quillaja saponaria
Assay [1] can be described thus: Experiment 6-1: screening of rhamnosidases for derhamnosylation of saponins in treated bark extract (2%), QS-17 2296 to QS-18 2150 (PAR %). The settings on record: TBE 2%, pH 7.5, 30 degC, 18 h; TIC peak area ratio percent of rhamnosylated starting saponin to derhamnosylated product, LCMS/MS; negative controls 4.876, 5.225.
The nature of assay [2]: Experiment 6-1: screening of rhamnosidases for derhamnosylation of saponins in treated bark extract (2%), desglucosyl-QS-17 2134 to QS-21 1988 (PAR %). Particulars: TBE 2%, pH 7.5, 30 degC, 18 h; TIC peak area ratio percent, LCMS/MS; negative controls 2.719, 2.158.
Assay [3] can be described thus: Experiment 6-1: screening of rhamnosidases for derhamnosylation of saponins in treated bark extract (2%), QS-17 2310 to QS-18 2164 (PAR %). Particulars: TBE 2%, pH 7.5, 30 degC, 18 h; TIC peak area ratio percent, LCMS/MS; negative controls 3.061, 2.429.
Assay [4] can be described thus: Experiment 6-2: screening of rhamnosidases for derhamnosylation of saponins in treated bark extract (25%), relative % of Left, Middle and Right Peak by UV HPLC. Particulars: TBE 25%, pH 7.4, 19.5 h; for Left Peak: mainly QS-17 family, negative control 24%; for Middle Peak: mainly QS-18 and desglucosyl-QS-17 family, negative control 50%; for Right Peak: mainly QS-21 family, negative control 26%.

Assay [5] can be described thus: Experiment 6-3: screening of rhamnosidases for derhamnosylation of saponins in crude bark extract (80%), relative % of Left, Middle and Right Peak by UV HPLC. Particulars: CBE 80%, pH 7.4, 30 degC, 19.5 h; for Left Peak: mainly QS-17 family, negative control 27%; for Middle Peak: mainly QS-18 and desglucosyl-QS-17 family, negative control 48%; for Right Peak: mainly QS-21 family, negative control 26%. A digest of the protocol:
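Clarified lysates of expressed rhamnosidase variants were incubated with crude bark extract (pH 7.4, final 80%) at 30 degC with shaking for 19.5 h, then quenched with MeCN+2% AcOH. UV HPLC gave relative % of Left (QS-17), Middle (QS-18/desglucosyl-QS-17) and Right (QS-21) peaks.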

Assay [6] in a line: Experiment 6-1: specificity of rhamnosidases towards other rhamnose residues (C3 saccharide rhamnose, C28 saccharide rhamnose). Particulars: TBE 2%, pH 7.5, 30 degC, 18 h; LCMS/MS; negative controls 0.18, 0.17.

B1: 1018 (protein)
chain: MFELDRRALLLGLPVTSGALADGASQTSRWRAVGLRTAMRRQPLGIDDPQPMLSWRLEGPAGAVQSAYQIMVASTAEKLHAGVADLWDSGRVKSSESVGVRYGGAPLKPRQRCVWRVRAWDAAGRASDWSPPATWEMGLIDQSEWIGDWLAVEAADERDDRVAGVRWVETQTPKPHETCRFRLSFRSGGGEGRLAIMAEGKLSKLVLDGRSIELPWRDPNGYGDPPALGLPLQLEAGAHELIAEVTSTGPGEGPGRAALGAQVRVLAADGAARRIVDGWETEAAGAWTPAVVRTAQPHFPWPPTPARLLRRTFTLSKPPTQARLYVSALGGYRIWLNGRRVGDDELQTEPAAYRRHVPYRAYDVTDLLRDGENVVGLIVGDGTFASYQAPDGRYAYGPGPRRVRLFLESRDSGDRVERVATDGEWRHALSPVLMSEIYAGEDHDLRLWPRGWAEPGFDDSGWSRVWTAPPPEGAPCALLSEPIRETRVLKAASIRAVGPGRHIVDFGQNFAGRVRLRVKGAKGAPVIVRHAEILDGQGALDRRNLRVARAEDRYILNGDDAPETLQPSFTYQGFRYAEIEGVAGLDRDMIDGVVLSSDLPEIGVFRTAEPLVQNLWLNSLWSQRSNFMGIPTDCPQRDERLGWTGDAQVFWETAAFNMDVGGFTRGFARTLRDDQAPNGAYPMWSPSPRGLGWGTTTPTPGWADGGVMLPYVAYLHSGDRSIVDENWTAMSAYVSGVLAENPDGLWRRGRGADFGDWLALDGKWPGDETTPKDLIATAMLARSVDQLAQMAAWTGRSAEAKTWRGQADRIKAAFASAFVRADGTVGNGSHTGYILALRLGLAPQPLRKAAGEHLAADIRRRGTLLSTGFLGTPLALDALADHGHAGLAFDLLLRTEYPSWGYMVRRGATTTWERWNGDTGDVSMNSFNHYALGAICGFLYRRVAGVEPITPGFGAFRVAPLIDPRLRSAGATVDSVRGRIETDWRVTGDKAVLKVRVPANSRAEVVLPTLTRSLGAGDHTLSVPLAK
modifications: Caulobacter vibrioides
For B1, in assay [1], the “QS-17 (PAR %)” value came to 1.512%. Besides, the “Peak75 (PAR %)” value in assay [2] is on record as 2.651%. For the same molecule, the “Peak57 (PAR %)” value in assay [3] was 0.547%. For the same molecule, in assay [4], the “Left Peak” value is reported as 22%, the “Middle Peak” value stood at 52% and the “Right Peak” value is recorded as 26%. Besides, in assay [5], the “Left Peak” value is reported as 26%, the “Middle Peak” value came out at 48% and the “Right Peak” value amounted to 26%. Moreover, the “ratio PP/QS-21” value in assay [6] turned out to be 0.17.

B2: 1066 (protein, listed as Caulobacter segnis)
chain: MQIDRRRVMLLGGAGSLVVAQGEAAPLGAAAISDCRVCGLETPLALGAATPRFSWRLSGPRPQAAYRITVARSAADLSAPRDLVWDSGKVASGQSFDIAFGGPAAAPRQVFWWRVEAWDDKGARAVGRPARWETGLLSASDWNAAWLAAEDATAKADRLAGVHWISGPESITDKTSKRCYRTSFEVPAQSDGTLFLAASGLAGVFLNGQELAAGEEEPTRFTTMSPYPLALRQGRNVIAIAQTPSRDLGGPQPMLCALIRLGGSERRLSTAEGWKTTVNAPEGWTLPDFDDGAWPAATTARNRPRGQPLPPGAATHLRRAFRLDKPVAQARLYATALGAYEAWINGAPADERKMAPEPTNLLERVLYQAYDVTAALRAGDNVLGLWVGDGWYASEFSANARFCFGPAPCRAMAQLEILFIDGSRQVIATDDQWRIAPSAILTSEIYDGEVYDARQEIKDWALPGTPQGGWRPAETVEAPNLPIDPQVSPPIRVTQRLKPKAVTSPKPGVHVFDFGQNFAGWAELAISGKAGTRIELLFGEYLKPDGQVDQANLRTAFARDTYVLKGQGREVWSPRFTYHGFRYVEVRGLANAPAADLLTGLVGHNDIRVSGVLRVGAPVVEQFWRNSVWSQRSNFFGLPTDCPQRDERLGWLGDAAVFWPAAAYNMDVEAFTRRFMGDVRRAQRPDGQFPDCIPPFMVPSSRSAPGWSDAGVILPYTAWRQYGDTGVIAENWEAMERYLAFILAKNPDYLWKSSKGNDYGDWLAVDAKYLGEATTPKDLIGTAFWAADAAMMRDMAKAIGKAEAAERYRALFEAIRAAFAGAYVQADGKIGNGSQTSYILAIRFGLLSPEQASEAGRRLAADIAARGGKLSTGFLGTPHILDALADTGHEATAVGLLLQRDYPSWGYMVTKGATTMWERWNSDTGDLSMNSYNHYAFGAIGDFLFRRIAGLAAVEPGFAKVVIAPIFDRRLGSAGADYDSVSGRLSSNWRYEGDTVRLDLSIPPGVQAEVVIPTAARAVRVDGRPVPSARFRVERGQHRVVFTA
B2: the “QS-17 (PAR %)” value in assay [1] was 2.194%. In addition, the “Peak75 (PAR %)” value in assay [2] is reported as 1.220%. In assay [3], the “Peak57 (PAR %)” value is 0.896%. Besides, in assay [4], the “Left Peak” value was 20%, the “Middle Peak” value is 53% and the “Right Peak” value was determined as 27%. In addition, in assay [5], the “Left Peak” value is 26%, the “Middle Peak” value is 48% and the “Right Peak” value was determined as 27%. In addition, the “ratio PP/QS-21” value in assay [6] stood at 0.18.

B3: 1076 (protein, listed as Kribbella flavida)
chain: MSFRTRFGCLLAAVLLLTPLVPATGSPPATRETLQVRNLKTNNLTNPLGVPGTPPRLSWQLDGDRRGITQSRYQIRVASTPAKTARPDIWDSGVVRSTDSIEVPYGGPALTTGTAYHWTVRVWDDAGKASAWSPVATFETGPLRPGDWQGDWIGADNQPGPEWTDTTIDADVTLVKDALGVFFRGRGGVGYMWQLNQLTPDKPLLRPHVRQPGGGYVLLGEIPLAAGTDLKQRHHLRITVAGRTITTWLDGVQVDSRERSDHNAPGVVGFRTDGAEHGVVHSLKVTNVAGEVLVDTAFPAGDQTFPDGTVRAEGGLQVKGTTDLWLPGKPIPVFRKAISLPKAKKVASARIDAAAQGIYELTVNGRKAGDHQLAPGWTDYARRIQSQTYDVTKLLKSGANTLGAEVAPGWFTGNLAMFGPNKYGTDTAFIAQLRVTYTDGTADVFATDSSWQTAPGAVRVADLLNGESYDARRTASEWVPAQVRPSATAKIVPQTDQPVRVTQELKARAIPSPTPGAYLYDLGQNMVGIARLTLHGRPGQTVKIRYGEVLNPDGTLYTDNLRSAKATDHYTFATSRPETYQPRFTFHGFRYVEVSGLPTAPPASAIVGVVLGTDAEQVNEFRTNSPLVNQLHSNIVWGQRGNFLSIPTDTPARDERMGWTGDINVFARTAVYNLDSQAFLTKWLQDLRDTQRADGAYASVAPTVPNSFDGGMGNAGWADAGVNVPWTLWQAYGDTSVIRQHYASMTRYVDYLVASSNGLIRGGGDYGDWLNLDDPTPGELIGTSFVAKGARQLSQMAAAIGHTADAAKYQRVYEDVRAAFAARFVAADGKVGSDSQTGYILAFTSDLVPADRIAAAGEHFAATILRRDTHLSTGFLGVDGLLPVLTKIGRTDLAYRLLQNTSYPSWGYEIGKGATTIWERWNSINPDGTFNDVGMNSFNHYAYGAVGEWMYRTLAGLSAAEPGYRKALIAPTPGDGIDTAQLRHRTPYGEVGSQWRRLADGRFTLEVEVPANTTATVRLPAAEARQITESGRALSRAVGVSGVVDEGTTVALTVGSGNYRFAVRP
As to B3, the “QS-17 (PAR %)” value in assay [1] is given as 3.766%. The “Peak75 (PAR %)” value in assay [2] amounted to 1.961%. Also, in assay [3], the “Peak57 (PAR %)” value came out at 1.295%. In assay [4], the “Left Peak” value was 22%, the “Middle Peak” value amounted to 52% and the “Right Peak” value was found to be 26%. In assay [5], the “Left Peak” value was determined as 26%, the “Middle Peak” value stood at 48% and the “Right Peak” value is 27%. Moreover, the “ratio PP/QS-21” value in assay [6] is given as 0.19.

B4: 1082 (protein, listed as Streptomyces avermitilis)
chain: MSALRVTSPSVEYVQRPLGLDAAHPRLSWPMASAAPGRRQSAYQVRVASSAAGLSHPDVWDSGKVVSDDSVLVPYAGPPLKPRTRYFWSVRVWDADGGASEWSAPSWWETGLMGASQWSAKWISAPAPLTEAPSLEGSSWIWFPEGEPANSAPAATRWFRRTVDLPDDITGATLAISADNVYAVSVDGAEVARTDLEADNEGWRRPAVIDVLDHVHSGNNTLAVSASNASVGPAGWICVLVLTTASGEKKIFSDASWKSTDHEPADGWREPDFDDSGWPAAKVAAAWGAGPWGRVAPVASAANQLRHEFRLPHKKVSRARLYATALGLYEAHLNGRRVGRDQLAPGWTDYRKRVQYQTYDVTSSVRPGANALAAYVAPGWYAGNVGMFGPHQYGERPALLAQLEVEYADGTSERITSGPDWRAASGPIVSADLLSGETYDARKETAGWTSPGFDDRAWLAVRGADNDVPEQIVAQVDGPVRIAKELPARKVTEPKPGVFVLDLGQNMVGSVRLRVSGDAGTTVRLRHAEVLNPDGTIYTANLRSAAATDTYTLKGQGEETYEPRFTFHGFRYVEVTGFPGKPSTTSVTGRVMHTSAPFTFEFETNVPMLNKLHSNITWGQRGNFLSVPTDTPARDERLGWTGDINVFAPTAAYTMESARFLTKWLVDLRDAQTSDGAFTDVAPAVGNLGNGVAGWGDAGVTVPWALYQAYGDRQVLADALPSVHAWLRYLEKHSDGLLRPADGYGDWLNVSDETPKDVIATAYFAHSADLAARMATELGKDAAPYTDLFTRIRKAFQTAYVASDGKVKGDTQSAYVLTLSMNLVPDALRKAAADRLVALIEAKDWHLSTGFLGTPRLLPVLTDTGHTDVAYRLLHQRTFPSWGYPIDKGSTTMWERWDSIQPDGGFQTPEMNSFNHYAYGSVGEWMYANIAGIAPGRAGYRQVVIRPRPGGEVTSARATFASLHGPVSTRWQQRSGGFVLTCSVPPNTTAEVWIPADHPDRVQHTHGTFVRAEDGCAVFEVGSGSHRFTV
For B4, the “QS-17 (PAR %)” value in assay [1] worked out at 3.122%. In addition, in assay [2], the “Peak75 (PAR %)” value was determined as 1.614%. The “Peak57 (PAR %)” value in assay [3] came out at 0.000%. In assay [4], the “Left Peak” value was 19%, the “Middle Peak” value turned out to be 55% and the “Right Peak” value came to 26%. Further, in assay [5], the “Left Peak” value was determined as 26%, the “Middle Peak” value was 47% and the “Right Peak” value stood at 27%. The “ratio PP/QS-21” value in assay [6] worked out at 0.21.
